# In patent US20230340555A1, “PRODUCTION OF GLYCOSYLATED CANNABINOIDS” (WILLOW BIOSCIENCES, INC., priority 2020, published 2023):
# Test system: CN3 yeast strain host cells
# Test: Detection of glycosylated cannabinoids and cannabinoid precursors in yeast cells expressing UDP-glycosyl transferase (HPLC-MS)
# Format: cell-based
# Conditions: pellet or supernatant of recombinant yeast host cells transformed with the UGT
# Excerpt: CN3 yeast strain host cells were transformed as described in Example 1 with one of the following heterologous UGT genes: (1) AtUGT73C6, (2) AtUGT73B4, (3) AtUGT71 D1, (4) AtUGT76E12, (5) AtUGT88A1, (6) HaUGT76G1-L, (7) At5g49690, (8) AtUGT76C4, (9) CsUGT73C6, (10) SrUGT76C1, (11) AtUGT85A3, (12) AtUGT73B1, (13) Atg65550, (14) AtUGT76B1, (15) ATUGT76B1, (16) CsUGT75B2, (17) CsUGT73B4, (18) CsUGT73B1, (19) CsUGT75D1-DN11028, and (20) CsUGT71D1-DN48028. The transformed host cells were pre-grown overnight in yeast extract peptone dextrose (YPD) growth medium and then back diluted into yeast extract peptone galactose (YPG) to OD600 = 0.2. […] Strains were incubated for 20 h at 28° C. rotating at 600 RPM in an EPOCH|2 microplate reader (BioTek). Subsequently, samples were treated with an extraction solvent (80 % Acetonitrile, 20 % Methanol) for 1 hour rotating at 100 RPM. After 20 minutes centrifugation at 12,000 RPM, the supernatant was filtered with a basix 13 mm syringe filter (0.22 µm pore size, Nylon membrane) and transferred to a new tube for further analysis.
# Glycosylated cannabinoid compounds and glycosylated cannabinoid precursor compounds were assayed in the supernatant and the cellular pellet employing HPLC and HPLC-MS analysis. HPLC and HPLC-MS analysis was carried out as described below to detect the following glycosylated cannabinoid and cannabinoid precursor compounds: CBGA monoglucoside, CBGA diglucoside, CBDA monoglucoside, CBDA diglucoside, CBGA glucuronic acid, CBD monoglucoside, CBD diglucoside, olivetolic acid monoglucoside (“OliAcid monoglucoside”), olivetolic acid diglucoside (“OliAcid diglucoside”).
# HPLC analysis was carried out on an Agilent Technologies 1290 Infinity system, consisting of a vacuum degasser, a binary pump, a thermostated autosampler, a thermostated column compartment and a diode array detector (DAD). A Zorbax Eclipse Plus EC-18 column (2.1 × 50 mm, 1.8 µm, Agilent, USA) was used with a mobile phase composed of 0.1% formic acid in both (A) water with 0.2 % Formic Acid and (B) Acetonitrile with 0.2 % Formic Acid. The chromatographic conditions were set as follows: 0.0-8.0 min linear gradient from 5 to 95% B; 8.1-9.09 min […], 9.10-11.0 min 5 to 95% A for equilibration of the column with the initial conditions. The flow rate was set at 0.4 ml/min. The column temperature was set at 40° C. The sample injection volume was 5 µL. The UV/DAD acquisitions were carried out in the range 190-400 nm and chromatograms were acquired at 265 and 350 nm.
# HPLC-MS analysis was carried out to confirm the identity of the HPLC peaks using an Agilent Technologies 6530 Accurate-Mass quadrupole time of flight (QToF) mass spectrometer operating in negative ionization (ESI -) mode. The mass spectrometer experimental parameters were set as follows: the capillary voltage was 3.5 kV, the nebulizer (N2) pressure was 35 psi, the drying gas temperature was 350° C., the drying gas flow was 11 L/min and the skimmer voltage was 65 V. Data were acquired by Agilent Mass Hunter software. The mass spectrometer was operated in full-scan mode in the m/z range 50-1100. Extracted ion chromatograms (EICs) were obtained with an accuracy of 10 ppm m/z from total ion chromatogram (TIC) employing the m/z corresponding to the molecular ions [M-H]^- 385.1504 for Olivetolic Acid Mono-Glucoside, 547.2032 for Olivetolic Acid di-Glucoside, 521.2756 for CBGA Mono-Glucoside, 683.3284 for CBGA Di-Glucoside, 535.2549 for CBGA Glucuronic Acid, 519.2600 for CBDA Mono-Glucoside, 475.2701 for CBD Mono-Glucoside, 637.3302 for CBD Di-Glucoside.
# The glycosylated cannabinoid compounds and glycosylated cannabinoid precursor compounds were detected in a relative and semi-quantitative fashion. […]
row,Molecule,production of glycosylated cannabinoids or cannabinoid precursor compounds
1,"CsUGT73B4: UDP-glycosyl transferase from Cannabis sativa, amino acid sequence SEQ ID NO: 34 (protein, listed as Cannabis sativa) MSKGHTIPLLHLARVLLNRHVTVTIFTTPANRSFITKFLPATSAAIVELPFPKNIPGVPNGVENTEDFPTMSMSMFYSLVLGTQNMKPDLDRALENIQTPVSFMVSDGFLWWTLDSASKLGFPRLVFYGMSHYAMAVYHSLFNSKKPKQTETETVVSDFPWIKLTRSEYDPSAQNGEDQSLAHEFMSKATEATNNSFGMIYNSFYELEPMFTDYWNQKVGPKSWPLGPLCLHDMKIESRGLVVHPWLDEKESSSVLYVAFGSQATVSSEQVREIAKGLEYSNVNFFWVLRKLEPEENKFLEEFEKRVKNRGIVVRDWVNQMEILKHKSVKGFFSHCGWNSVMESLSAGLPILGFPMMAEQHINAKMVVEEIKIGLRVKSYDGSLNGIVKSEEVSKMVKELMEGEVGKEMRKKVEEFAVMAHKAVQKGGSSWETLDLLLSSTKQRIHHY",No production
2,"CsUGT75B2: UDP-glycosyl transferase from Cannabis sativa, amino acid sequence SEQ ID NO: 32 (protein, listed as Cannabis sativa) MVQPRFLILAFPLQGTINPCLNLANQLIRVANAQVTFVTSVNAHRLIMTTHTVATTSNNLLSFSPFFDGYDEGVTDGKGFHDHFVEFKRRGWQAVGDILELGFKEGRPYTCLVYSILLTWAADVAATHNVPASMFWMQPATVFDVYYYYFHGHKEIICANTKNHSFSLSFPRIPLTMNLKDLPSLMVDSNYSYILTMLHEMYKDFEKESNNTKIILVNTFDELEPDALRAINKFNLIGIGPLITSKTSFSFRNYIEWLNTKPKKTVVYVSFGSILILKKQQMDEIAKGLLEFGHPFLWVIKEKNSSSKEGVHEDNIKNELSYKEELEKLGMIVPWCSQMEVLRNESLGCFVTHCGWNSTLESIVSGVPVVAFPQWTDQQTNAKLIEEMWKIGVRVKPDEDGIVKSEEIKRCLELVMSKNENRTEIVKNVKKWQNLTKEAMREGGSSEKNLITFVKSIHQ",No production
3,"CsUGT73B1: UDP-glycosyl transferase from Cannabis sativa, amino acid sequence SEQ ID NO: 36 (protein, listed as Cannabis sativa) MSKEIWVVPFFGQGHLFPSMELCKQIASRNINTLLVIPSNLSFSIPSSLRQYPLLQIVEIQPTSAPSAQPGPDPIDQPPHGNPDQFEMGLENLLQAQVTGPDSVRPICAILDVMMDWTTEVFNKFDIPTIGFFTSGACSAAMEYGLWKAQPIDLKPGEVRLLPGLPEEMAVTYLDTNQRPHQPPGPPLHLFGVGHQGPFVDGAHRPPGPPPPPYLGRAGPRQRGPPKHGSQPPWVDGLKGSIALMINTCDYLERPFIEYLTKQIGKPVWGVGPLLPEQFWNSVSSNSILHDHEIRTNRQSNVSEDDVIQWLDSKPRGSVLYVCFGTEVSPSMEEYSELADALEASTQPFIWVVHSGTGRSGPPPSRGPTQEDYFPHGLASQVGPKGLIINGWAPQLLILSHSSIGGFLTHCGWNSTVEAIGLGVPLLAWPIRGDQNYNAKLVVAHLKLGFMISDNLSEKIKKHEIVKGIKTLMGDDDIKSRARNLAAIFQKGFPISSTTNLDVFRDMINNFT",No production
